Experimental data from publication PMC6179962, “POLE3-POLE4 Is a Histone H3-H4 Chaperone that Maintains Chromatin Integrity during DNA Replication” (Molecular Cell, 2018).

Legend:
[1] = target: tagged POLE3-POLE4 complex (GST-Pole4/His-POLE3) (human) (UniProt Q9NR33); experiment: pull-down; as a2 but 300 mM NaCl
[2] = target: T1, GST-tagged POLE3 (human, UniProt Q9NRF9 1-147); experiment: pull-down; GST-tagged POLE3 or POLE4 (WT or mutant) on glutathione beads with His-tagged POLE4 or POLE3; 150 mM and 1 M NaCl (Figures S1A, S1B); salt of Figure 1C not told; details: both partners purified
T1 construct: DNA polymerase epsilon subunit POLE3, human, full length; cloned in pGEX 6P-1; also called GST-POLE3; source: E. coli BL21(DE3) pLysS, purified (glutathione-Sepharose 4B)
T1 sequence (looked up): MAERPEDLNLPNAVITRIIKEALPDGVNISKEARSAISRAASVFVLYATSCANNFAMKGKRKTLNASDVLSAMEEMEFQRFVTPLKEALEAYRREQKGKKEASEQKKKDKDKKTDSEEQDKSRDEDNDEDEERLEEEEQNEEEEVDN

[3] = target: T2, His-tagged POLE3 (human, UniProt Q9NRF9 1-147); experiment: as above; details: both partners purified
T2 construct: DNA polymerase epsilon subunit POLE3, human; cloned via Gateway into pDEST17; also called His-POLE3; source: E. coli BL21(DE3) pLysS, purified (Ni-NTA)
T2 sequence (looked up): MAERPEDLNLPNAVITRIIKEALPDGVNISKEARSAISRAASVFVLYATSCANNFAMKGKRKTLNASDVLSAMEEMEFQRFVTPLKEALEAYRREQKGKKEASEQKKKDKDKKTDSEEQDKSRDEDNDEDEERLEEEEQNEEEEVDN

## purified H3-H4 histones (H3.3 variant) (from UniProt P84243 1-136; P62805 1-103) (complex)
[1]
  percent of the interaction at 150 mM NaCl: 50%

B1: His-tagged POLE4 (natural protein, human, UniProt Q9NR33 1-117, looked up)
chain: MAAAAAAGSGTPREEEGPAGEAAASQPQAPTSVPGARLSRLPLARVKALVKADPDVTLAGQEAIFILARAAELFVETIAKDAYCCAQQGKRKTLQRRDLDNAIEAVDEFAFLEGTLD
notes: DNA polymerase epsilon subunit POLE4, human; cloned via Gateway into pDEST17; also called His-POLE4; source: E. coli BL21(DE3) pLysS, purified (Ni-NTA)
[2]
  binding result: binds

B2: GST-tagged POLE4 (natural protein, human, UniProt Q9NR33 1-117, looked up)
chain: MAAAAAAGSGTPREEEGPAGEAAASQPQAPTSVPGARLSRLPLARVKALVKADPDVTLAGQEAIFILARAAELFVETIAKDAYCCAQQGKRKTLQRRDLDNAIEAVDEFAFLEGTLD
notes: DNA polymerase epsilon subunit POLE4, human, full length; cloned in pGEX 6P-1; also called GST-POLE4; source: E. coli BL21(DE3) pLysS, purified (glutathione-Sepharose 4B)
[3]
  binding result: binds
